± gives the uncertainty stated by the source.
B1: Intersectin-2, residues 1129 to 1183; numbered along this chain, Q9NZM3 (parent)
chain: VCQVIAMYDYAANNEDELSFSKGQLINVMNKDDPDWWQGEINGVTGLFPSNYVKM

Variants of: B1
Assay: abundance fitness (aPCA) (normalised: wild type 0, dead -1); higher = more abundant; growth selection in yeast, the domain comes from the species named
Conditions: Homo sapiens
Work on VCQVIAMYDYAANNEDELSFSKGQLINVMNKDDPDWWQGEINGVTGLFQSNYVKM yielded an abundance fitness of -0.129 ± 0.049. VCQVIAMYDYAANNEDELSFSKGQLINVMNKDDPDWWQGEINGVTGLFKSNYVKM showed an abundance fitness of -0.017 ± 0.041. VCQVIAMYDYAANNEDELSFSKGQLINVMNKDDPDWWQGEINGVTGLFYSNYVKM gave an abundance fitness of -0.104 ± 0.097. In the case of VCQVIAMYDYAANNEDELSFSKGQLINVMNKDDPDWWQGEINGVTGLFASNYVKM, the abundance fitness is reported as -0.193 ± 0.052. Work on VCQVIAMYDYAANNEDELSFSKGQLINVMNKDDPDWWQGEINGVTGLFNSNYVKM yielded an abundance fitness of -0.106 ± 0.062. VCQVIAMYDYAANNEDELSFSKGQLINVMNKDDPDWWQGEINGVTGLFRSNYVKM showed an abundance fitness of 0.017 ± 0.039. VCQVIAMYDYAANNEDELSFSKGQLINVMNKDDPDWWQGEINGVTGLFTSNYVKM showed an abundance fitness of -0.746 ± 0.099. Variant VCQVIAMYDYAANNEDELSFSKGQLINVMNKDDPDWWQGEINGVTGLFHSNYVKM has an abundance fitness of -0.1 ± 0.082. Work on VCQVIAMYDYAANNEDELSFSKGQLINVMNKDDPDWWQGEINGVTGLFSSNYVKM yielded an abundance fitness of -0.195 ± 0.035. Work on VCQVIAMYDYAANNEDELSFSKGQLINVMNKDDPDWWQGEINGVTGLFESNYVKM yielded an abundance fitness of -0.442 ± 0.037. Variant VCQVIAMYDYAANNEDELSFSKGQLINVMNKDDPDWWQGEINGVTGLFFSNYVKM has an abundance fitness of -0.358 ± 0.032. For VCQVIAMYDYAANNEDELSFSKGQLINVMNKDDPDWWQGEINGVTGLFISNYVKM, the abundance fitness was -0.49 ± 0.11. Work on VCQVIAMYDYAANNEDELSFSKGQLINVMNKDDPDWWQGEINGVTGLFMSNYVKM yielded an abundance fitness of -0.086 ± 0.05. For VCQVIAMYDYAANNEDELSFSKGQLINVMNKDDPDWWQGEINGVTGLFDSNYVKM, the abundance fitness was -0.482 ± 0.088. VCQVIAMYDYAANNEDELSFSKGQLINVMNKDDPDWWQGEINGVTGLFVSNYVKM showed an abundance fitness of -0.782 ± 0.059. VCQVIAMYDYAANNEDELSFSKGQLINVMNKDDPDWWQGEINGVTGLFLSNYVKM gave an abundance fitness of -0.143 ± 0.032. Work on VCQVIAMYDYAANNEDELSFSKGQLINVMNKDDPDWWQGEINGVTGLFPSCYVKM yielded an abundance fitness of -0.044 ± 0.058. Work on VCQVIAMYDYAANNEDELSFSKGQLINVMNKDDPDWWQGEINGVTGLFPSDYVKM yielded an abundance fitness of -0.005 ± 0.055. For VCQVIAMYDYAANNEDELSFSKGQLINVMNKDDPDWWQGEINGVTGLFPSAYVKM, the abundance fitness was -0.075 ± 0.044. With VCQVIAMYDYAANNEDELSFSKGQLINVMNKDDPDWWQGEINGVTGLFPSEYVKM the abundance fitness was -0.154 ± 0.05. VCQVIAMYDYAANNEDELSFSKGQLINVMNKDDPDWWQGEINGVTGLFPMNYVKM showed an abundance fitness of 0.004 ± 0.052. With VCQVIAMYDYAANNEDELSFSKGQLINVMNKDDPDWWQGEINGVTGLFPNNYVKM the abundance fitness was -0.1 ± 0.044. VCQVIAMYDYAANNEDELSFSKGQLINVMNKDDPDWWQGEINGVTGLFPKNYVKM gave an abundance fitness of -0.074 ± 0.055. VCQVIAMYDYAANNEDELSFSKGQLINVMNKDDPDWWQGEINGVTGLFPANYVKM showed an abundance fitness of -0.046 ± 0.043. Variant VCQVIAMYDYAANNEDELSFSKGQLINVMNKDDPDWWQGEINGVTGLFPPNYVKM has an abundance fitness of -0.015 ± 0.031. With VCQVIAMYDYAANNEDELSFSKGQLINVMNKDDPDWWQGEINGVTGLFPQNYVKM the abundance fitness was -0.037 ± 0.039. VCQVIAMYDYAANNEDELSFSKGQLINVMNKDDPDWWQGEINGVTGLFPYNYVKM gave an abundance fitness of -0.128 ± 0.067. With VCQVIAMYDYAANNEDELSFSKGQLINVMNKDDPDWWQGEINGVTGLFPINYVKM the abundance fitness was -0.084 ± 0.066. Variant VCQVIAMYDYAANNEDELSFSKGQLINVMNKDDPDWWQGEINGVTGLFPTNYVKM has an abundance fitness of -0.084 ± 0.045. VCQVIAMYDYAANNEDELSFSKGQLINVMNKDDPDWWQGEINGVTGLFPGNYVKM showed an abundance fitness of -0.109 ± 0.038. With VCQVIAMYDYAANNEDELSFSKGQLINVMNKDDPDWWQGEINGVTGLFPDNYVKM the abundance fitness was -0.98 ± 0.16. For VCQVIAMYDYAANNEDELSFSKGQLINVMNKDDPDWWQGEINGVTGLFPENYVKM, the abundance fitness was -0.266 ± 0.056. Work on VCQVIAMYDYAANNEDELSFSKGQLINVMNKDDPDWWQGEINGVTGLFPLNYVKM yielded an abundance fitness of -0.166 ± 0.03. Variant VCQVIAMYDYAANNEDELSFSKGQLINVMNKDDPDWWQGEINGVTGLFPWNYVKM has an abundance fitness of -0.399 ± 0.055. VCQVIAMYDYAANNEDELSFSKGQLINVMNKDDPDWWQGEINGVTGLFPCNYVKM gave an abundance fitness of -0.139 ± 0.055. Variant VCQVIAMYDYAANNEDELSFSKGQLINVMNKDDPDWWQGEINGVTGYFPSNYVKM has an abundance fitness of -0.04 ± 0.049. VCQVIAMYDYAANNEDELSFSKGQLINVMNKDDPDWWQGEINGVTGWFPSNYVKM gave an abundance fitness of -0.061 ± 0.033. In the case of VCQVIAMYDYAANNEDELSFSKGQLINVMNKDDPDWWQGEINGVTGPFPSNYVKM, the abundance fitness is reported as -0.257 ± 0.05. With VCQVIAMYDYAANNEDELSFSKGQLINVMNKDDPDWWQGEINGVTGGFPSNYVKM the abundance fitness was -0.023 ± 0.037. Work on VCQVIAMYDYAANNEDELSFSKGQLINVMNKDDPDWWQGEINGVTGCFPSNYVKM yielded an abundance fitness of -0.185 ± 0.057. With VCQVIAMYDYAANNEDELSFSKGQLINVMNKDDPDWWQGEINGVTGKFPSNYVKM the abundance fitness was 0.039 ± 0.052. Variant VCQVIAMYDYAANNEDELSFSKGQLINVMNKDDPDWWQGEINGVTGDFPSNYVKM has an abundance fitness of -0.142 ± 0.041. Work on VCQVIAMYDYAANNEDELSFSKGQLINVMNKDDPDWWQGEINGVTGSFPSNYVKM yielded an abundance fitness of -0.011 ± 0.03. With VCQVIAMYDYAANNEDELSFSKGQLINVMNKDDPDWWQGEINGVTGIFPSNYVKM the abundance fitness was -0.183 ± 0.067. Variant VCQVIAMYDYAANNEDELSFSKGQLINVMNKDDPDWWQGEINGVTGNFPSNYVKM has an abundance fitness of -0.086 ± 0.061. In the case of VCQVIAMYDYAANNEDELSFSKGQLINVMNKDDPDWWQGEINGVTGHFPSNYVKM, the abundance fitness is reported as -0.061 ± 0.068. VCQVIAMYDYAANNEDELSFSKGQLINVMNKDDPDWWQGEINGVTGQFPSNYVKM showed an abundance fitness of -0.019 ± 0.05. For VCQVIAMYDYAANNEDELSFSKGQLINVMNKDDPDWWQGEINGVTGAFPSNYVKM, the abundance fitness was -0.007 ± 0.031.
